From patent US20220204610A1, “PROTEIN BINDERS FOR IRHOM2” (NEW YORK SOCIETY FOR THE RELIEF OF THE RUPTURED AND …, priority 2019, published 2022)

Test system: LPS-induced release of endogenous TNFα from human THP-1 macrophage cells
Experiment: ELISA-based TNFα release assay, IC50 determination (Example 12)
Format: cell-based
Details: titration 80.00 to 0.08 μg/ml final; LPS 50 ng/ml, 3 hours
Procedure: Expanding the functional analyses, ELISA-based TNFα release assays were performed to determine the half maximal inhibitory concentration (IC50) for the purified antibody 4H8-E3 of the invention on LPS-induced release of endogenous TNFα from human THP-1 macrophage cells.
In brief, on day 1, Nunc black MaxiSorp® 96-well plates (Thermo Fisher Scientific, USA) were coated overnight with 100 μl per well of mouse anti-human TNFα capture antibody (provided as part of the DuoSet ELISA kit) at 4 μg/ml TBS at 4° C. On day 2, the capture antibody solution was removed and MaxiSorp® plates were blocked with 300 μl per well of TBS, 1% BSA at room temperature for 3 hours. […] Using an infinite M1000 PRO (Tecan Group, Switzerland) microplate reader, the fluorescence of each well was collected at an excitation wavelength of 435 nm and an emission wavelength of 555 nm.

B1: 4H8-E3: Mouse IgM monoclonal antibody against the human iRhom2 juxtamembrane domain adjacent to TMD1; HC VD SEQ ID NO 33, LC VD SEQ ID NO 40 (antibody, V domains shown)
VH: EVQLQQSGPELVKPGASVKISCKASGYTFTDYYMNWVKQSHGKSLEWIGDINPNNGGTSYNQKFKGKATLTVDKSSNTAYMEFRSLTSEDSAVYYCARRGYYGVDYWGQGTTLTVSS
VL: NIVMTQSPKSMSMSVGERVTLNCKASENVGTYVSWYQQKPEQSPKLLIFGASNRYTGVPDRFIGSGFATDFTLTISSVQAEDLADYHCGQSYSYPYTFGGGTKLEIK
modifications: IgM constant regions; antibody sequence
inhibition of TNFα release from THP-1 cells on titration: concentration-dependent inhibition
